# Assay results reported in patent US20240424060A1 (DOMPE FARMACEUTICI, published 2024).
# B1: TrKA receptor immobilized on the SPR sensor surface (receptor)
# chain: AAPCPDACCPHGSSGLRCTRDGALDSLHHLPGAENLTELYIENQQHLQHLELRDLRGLGELRNLTIVKSGLRFVAPDAFHFTPRLSRLNLSFNALESLSWKTVQGLSLQELVLSGNPLHCSCALRWLQRWEEEGLGGVPEQKLQCHGQGPLAHMPNASCGVPTLKVQVPNASVDVGDDVLLRCQVEGRGLEQAGWILTELEQSATVMKSGGLPSLGLTLANVTSDLNRKNVTCWAENDVGRAEVSVQVNVSFPASVQLHTAVEMHHWCIPFSVDGQPAPSLRWLFNGSVLNETSFIFTEFLEPAANETVRHGCLRLNQPTHVNNGNYTLLAANPFGQASASIMAAFMDNPFEFNPEDPIPVSFSPVDTNSTSGDPVEKKDETPFGVSVAVG
# B2: p75^NTR receptor immobilized on the SPR sensor surface (receptor)
# chain: KEACPTGLYTHSGECCKACNLGEGVAQPCGANQTVCEPCLDSVTFSDVVSATEPCKPCTECVGLQSMSAPCVEADDAVCRCAYGYYQDETTGRCEACRVCEAGSGLVFSCQDKQNTVCEECPDGTYSDEANHVDPCLPCTVCEDTERQLRECTRWADAECEEIPGRWITRSTPPEGSDSTAPSTQEPEAPPEQDLIASTVAGVVTTVMGSSQPVVTRGTTDN
# Experiments:
# [1] = biological target: p75^NTR receptor immobilized on the SPR sensor surface; test: SPR, receptor immobilized, steady-state 1:1 fit (KDeq)
# [2] = biological target: TrKA receptor immobilized on the SPR sensor surface; test: as above
# [3] = biological target: T1, Recombinant human NGF (rhNGF) having an aminoacid sequence of 118 aminoacids (rhNGF-118) (human, UniProt P01138 122-239); test: as above
# T1 construct: Made in E. coli from proNGF mutant SP174-101
# T1 sequence (P01138 122-239 limits assumed): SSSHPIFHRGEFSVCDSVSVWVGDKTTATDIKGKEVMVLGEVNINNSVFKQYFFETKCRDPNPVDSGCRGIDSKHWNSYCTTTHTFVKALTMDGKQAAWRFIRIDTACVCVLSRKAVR
# [4] = biological target: T2, rhNGF-1: recombinant human NGF from R&D Systems Inc (product code: 256-GF/CF), manufactured in a mouse … (human, UniProt P01138 122-241; P01138 122-240; P01138 122-239; P01138 122-238); test: as above
# T2 construct: A commercial MIXTURE of isoforms, not a complex of four chains: the four entries are alternative forms
# T2 sequence (P01138 122-241 limits assumed, chain 1 of 4): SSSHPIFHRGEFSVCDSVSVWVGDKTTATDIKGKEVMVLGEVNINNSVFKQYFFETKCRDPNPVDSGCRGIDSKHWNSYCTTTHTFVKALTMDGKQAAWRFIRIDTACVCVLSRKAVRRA
# T2 sequence (P01138 122-240 limits assumed, chain 2 of 4): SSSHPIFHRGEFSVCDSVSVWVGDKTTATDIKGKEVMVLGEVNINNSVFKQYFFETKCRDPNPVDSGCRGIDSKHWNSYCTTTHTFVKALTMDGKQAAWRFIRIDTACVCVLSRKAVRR
# T2 sequence (P01138 122-239 limits assumed, chain 3 of 4): as the sequence (P01138 122-239 limits assumed) above
# T2 sequence (P01138 122-238 limits assumed, chain 4 of 4): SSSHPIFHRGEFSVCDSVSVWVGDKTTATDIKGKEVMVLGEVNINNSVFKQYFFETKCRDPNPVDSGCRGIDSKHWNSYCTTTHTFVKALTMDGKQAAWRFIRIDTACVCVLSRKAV
# [5] = biological target: T1, Recombinant human NGF (rhNGF) having an …; test: SPR, receptor immobilized, kinetic fit (BIA evaluation)
# [6] = biological target: T2, rhNGF-1: recombinant human NGF from R&D …; test: as above
# [7] = biological target: T1, Recombinant human NGF (rhNGF) having an …; test: SPR, receptor immobilized, kinetic Kd (Koff/Kon)
# [8] = biological target: T2, rhNGF-1: recombinant human NGF from R&D …; test: SPR, receptor immobilized, kinetic Kd (Koff/Kon)
Molecule,Kd [1] [nM],Kd [2] [nM],Kd [3] [nM],Kd [4] [nM],koff [5] [s⁻¹],kon [5] [M⁻¹ s⁻¹],koff [6] [s⁻¹],kon [6] [M⁻¹ s⁻¹],Kd [7] [nM],Kd [8] [nM]
"rhNGF2: recombinant human NGF from Active Bioscience (product code 1745.955), manufactured in CHO cells (from UniProt P01138 122-238) (ligand)",15.7,3.85,–,–,–,–,–,–,–,–
"rhNGF3: recombinant human NGF from Sino Biological (product code: 11050-HNAC), manufactured in CHO cells (from UniProt P01138 122-238) (ligand)",39.1,6,–,–,–,–,–,–,–,–
B1,–,–,4.33,3.65,0.00075,1.67e+06,0.00061,8.3e+06,0.38,0.0792
B2,–,–,7.1,5.06,–,–,0.0111,8.3e+06,2.6,1.33
